From EP4596580A1 (Staidson (Beijing) Biopharmaceuticals Co., Ltd., dated 2025)
Like-named read-outs stand apart in the source and are kept apart here.

T1: His-human LIGHT (human)
T1 chain: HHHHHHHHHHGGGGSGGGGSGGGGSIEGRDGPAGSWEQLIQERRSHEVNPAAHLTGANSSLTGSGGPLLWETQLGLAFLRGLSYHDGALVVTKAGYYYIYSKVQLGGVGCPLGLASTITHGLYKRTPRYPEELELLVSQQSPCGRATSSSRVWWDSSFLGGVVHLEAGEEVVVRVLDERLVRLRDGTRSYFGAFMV

T2: His-cynomolgus monkey LIGHT (cynomolgus monkey)
T2 construct: also called His-cynoLIGHT
T2 chain: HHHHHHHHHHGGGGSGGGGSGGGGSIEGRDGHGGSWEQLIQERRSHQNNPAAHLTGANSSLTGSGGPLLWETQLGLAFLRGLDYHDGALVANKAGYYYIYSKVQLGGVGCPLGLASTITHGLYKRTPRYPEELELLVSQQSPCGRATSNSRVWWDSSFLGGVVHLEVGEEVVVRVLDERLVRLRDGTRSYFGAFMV

T3: His-mouse LIGHT (mouse)
T3 construct: also called His-musLIGHT
T3 chain: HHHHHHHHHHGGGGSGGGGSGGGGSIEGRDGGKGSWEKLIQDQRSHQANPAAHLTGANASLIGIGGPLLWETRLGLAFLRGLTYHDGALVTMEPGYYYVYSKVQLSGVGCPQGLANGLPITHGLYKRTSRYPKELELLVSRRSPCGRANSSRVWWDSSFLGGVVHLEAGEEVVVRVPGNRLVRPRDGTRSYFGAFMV

B1: hum_LT-m37-13 (antibody, human IgG4, V domains shown)
VH: QVQLVQSGAEVKKPGASVKVSCKASGYSFTGYFINWVRQAPGQGLEWIGRIYPYNVDTFYNQNFKGRVTMTADKSTSTAYMELSSLRSEDTAVYYCGRGTHYYGSSGAMDYWGQGTLVTVSS
VL: EIVLTQSPATLSVSPGERATLSCKASQNVGTAVAWYQQKPGQSPRLLIYSASNRYTGIPARFSGSGSGTEFTLTISSLQSEDFAVYFCQQYSSYPYTFGGGTKVEIK
notes: humanized from LT-m37
B2: hum_LT-m37-14 (antibody, human IgG4, V domains shown)
VH: QVQLVQSGAEVKKPGASVKVSCKASGYSFTGYFINWVRQAPGQSLEWIGRIYPYNVDTFYNQNFKGRATLTADKSTSTAYMELSSLRSEDTAVYYCGRGTHYYGSSGAMDYWGQGTLVTVSS
VL: EIVLTQSPATLSVSPGERATLSCKASQNVGTAVAWYQQKPGQSPRLLIYSASNRYTGIPARFSGSGSGTEFTLTISSLQSEDFAVYYCQQYSSYPYTFGGGTKVEIK
notes: humanized from LT-m37
B3: hum_LT-m37-16 (antibody, human IgG4, V domains shown)
VH: QVQLVQSGAEVKKPGASVKVSCKASGYSFTGYFINWVRQAPGQGLEWIGRIYPYNVDTFYNQNFKGRVTMTADKSTSTAYMELSSLRSEDTAVYYCGRGTHYYGSSGAMDYWGQGTLVTVSS
VL: EIVLTQSPATLSVSPGERATLSCKASQNVGTAVAWYQQKPGQSPRLLIYSASNRYTGIPARFSGSGSGTEFTLTISSLQSEDFAVYYCQQYSSYPYTFGGGTKVEIK
notes: humanized from LT-m37
B4: hum_LT-m37-15 (antibody, human IgG4, V domains shown)
VH: QVQLVQSGAEVKKPGASVKVSCKASGYSFTGYFINWVRQAPGQGLEWIGRIYPYNVDTFYNQNFKGRATMTADKSTSTAYMELSSLRSEDTAVYYCGRGTHYYGSSGAMDYWGQGTLVTVSS
VL: EIVLTQSPATLSVSPGERATLSCKASQNVGTAVAWYQQKPGQSPRLLIYSASNRYTGIPARFSGSGSGTEFTLTISSLQSEDFAVYYCQQYSSYPYTFGGGTKVEIK
notes: humanized from LT-m37
B5: hum_LT-m85-3 (antibody, human IgG4, V domains shown)
VH: QVQLVQSGAEVKKPGASVKVSCKASGYTFTSYNVHWVRQAPGQGLEWIGAVYPGNGDTSYNQKFKGRATLTADKSTSTVYMELSSLRSEDTAVYYCARGSYYYTSSYFDHWGQGTLVTVSS
VL: EIVMTQSPATLSVSPGERATLSCKASQSVDFDGDSYMNWYQQKPGQPPRLLIYTASNLESGIPARFSGSGSGTEFTLTISSLQSEDFAVYYCQQSYEDPFTFGQGTKLEIK
notes: humanized from LT-m85
B6: hum_LT-m85-4 (antibody, human IgG4, V domains shown)
VH: QVQLVQSGAEVKKPGASVKVSCKASGYTFTSYNVHWVRQAPGQGLEWIGAVYPGNGDTSYNQKFKGRATLTADKSTSTAYMELSSLRSEDTAVYYCARGSYYYTSSYFDHWGQGTLVTVSS
VL: EIVMTQSPATLSVSPGERATLSCKASQSVDFDGDSYMNWYQQKPGQAPRLLIYTASNLESGIPARFSGSGSGTEFTLTISSLQSEDFAVYYCQQSYEDPFTFGQGTKLEIK
notes: humanized from LT-m85
B7: hum_LT-m85-1 (antibody, human IgG4, V domains shown)
VH: QVQLVQSGAEVKKPGASVKVSCKASGYTFTSYNVHWVRQAPGQGLEWIGAVYPGNGDTSYNQKFKGRATLTADKSTSTVYMELSSLRSEDTAVYYCARGSYYYTSSYFDHWGQGTLVTVSS
VL: EIVLTQSPATLSVSPGERATLSCKASQSVDFDGDSYMNWYQQKPGQPPRLLIYTASNLESGIPARFSGSGSGTEFTLTISSLQSEDFAVYYCQQSYEDPFTFGQGTKLEIK
notes: humanized from LT-m85
B8: hum_LT-m85-2 (antibody, human IgG4, V domains shown)
VH: QVQLVQSGAEVKKPGASVKVSCKASGYTFTSYNVHWVRQAPGQGLEWMGAVYPGNGDTSYNQKFKGRATLTADKSTSTAYMELSSLRSEDTAVYYCARGSYYYTSSYFDHWGQGTLVTVSS
VL: EIVMTQSPATLSVSPGERATLSCKASQSVDFDGDSYMNWYQQKPGQPPRLLIYTASNLESGIPARFSGSGSGTEFTLTISSLQSEDFAVYYCQQSYEDPFTFGQGTKLEIK
notes: humanized from LT-m85

What was measured:
His-human LIGHT [1] = target: T1, His-human LIGHT; assay: cell-based or functional assay
[2] = target: T4, LIGHT on the surface of HEK293-LIGHT stable cells (human, UniProt O43557 1-240); assay: cell-based or functional assay
His-human LIGHT [3] = target: T1, His-human LIGHT; assay: cell-based or functional assay
His-human LIGHT [4] = target: T1, His-human LIGHT; assay: cell-based or functional assay
His-human LIGHT [5] = target: T1, His-human LIGHT; assay: ELISA, His-huLIGHT coated
[6] = target: T2, His-cynomolgus monkey LIGHT; assay: ELISA, His-cynoLIGHT coated
hFc-human LIGHT [7] = target: T5, hFc-human LIGHT (human); assay: competition ELISA, LTβR-His coated, hFc-huLIGHT added
T5 construct: also called hFc-huLIGHT

His-human LIGHT [8] = target: T1, His-human LIGHT; assay: cell-based or functional assay
His-mouse LIGHT = target: T3, His-mouse LIGHT; assay: ELISA, His-musLIGHT coated
His-human LIGHT [9] = target: T1, His-human LIGHT; assay: cell-based or functional assay
[10] = target: T4, LIGHT on the surface of HEK293-LIGHT …; assay: cell-based or functional assay; remark: listed apart in the source
His-human LIGHT [11] = target: T1, His-human LIGHT; assay: cell-based or functional assay
His-human LIGHT [12] = target: T1, His-human LIGHT; assay: ELISA, His-huLIGHT coated
[13] = target: T2, His-cynomolgus monkey LIGHT; assay: ELISA, His-cynoLIGHT coated
hFc-human LIGHT [14] = target: T5, hFc-human LIGHT; assay: competition ELISA, LTβR-His coated, hFc-huLIGHT added; remark: listed apart in the source

IC50, LTβR NF-κB luciferase reporter, free LIGHT (His-human LIGHT [1]) [nM] | IC50, LTβR NF-κB luciferase reporter, HEK293-LIGHT cells [2] [nM] | IC50, LIGHT induced MMP-9 production in BEAS-2B bronchial epithelial cells (His-human LIGHT [3]) [µg/mL] | IC50, proliferation of CD3+ T cells stimulated by plate-bound anti-CD3 and His-huLIGHT (CellTiter Glo) (His-human LIGHT [4]) [µg/mL] | EC50 (His-human LIGHT [5]) [nM] | EC50 [6] [nM] | IC50 (hFc-human LIGHT [7]) [nM] | IC50, HVEM NF-κB luciferase reporter, free LIGHT (His-human LIGHT [8]) [nM] | binding result (His-mouse LIGHT) | IC50, LTβR NF-κB luciferase reporter, free LIGHT (His-human LIGHT [9]) [nM] | IC50, LTβR NF-κB luciferase reporter, HEK293-LIGHT cells [10] [nM] | IC50, HVEM NF-κB luciferase reporter, free LIGHT (His-human LIGHT [11]) [nM] | EC50 (His-human LIGHT [12]) [nM] | EC50 [13] [nM] | IC50 (hFc-human LIGHT [14]) [nM] | Binder
0.227 | 0.867 | 0.358 | 0.311 | 0.0422 | 0.104 | 0.867 | – | – | – | – | – | – | – | – | B1
0.182 | 1.86 | 0.352 | 0.332 | 0.0464 | 0.104 | 1.02 | 0.161 | – | – | – | – | – | – | – | B2
0.158 | 2.55 | 0.305 | 0.385 | 0.0369 | 0.104 | 0.808 | 0.179 | – | – | – | – | – | – | – | B3
0.219 | 1.28 | 0.197 | 0.195 | 0.0658 | 0.13 | 0.844 | 0.12 | – | – | – | – | – | – | – | B4
– | – | – | – | – | – | – | – | no binding | 0.159 | 4.68 | 0.564 | 0.00869 | 0.0155 | 0.282 | B5
– | – | – | – | – | – | – | – | no binding | 0.253 | 2.56 | 0.454 | 0.0127 | 0.0033 | 0.308 | B6
– | – | – | – | – | – | – | – | no binding | 0.649 | 4.24 | 0.33 | 0.0123 | 0.0089 | 0.274 | B7
– | – | – | – | – | – | – | – | no binding | 0.0613 | 6.02 | 0.209 | 0.0131 | 0.0142 | 0.265 | B8
